In patent publication US20220010008A1:
Values joined by “and” are separate entries in the source; they are usually repeats but may differ in a detail not shown here. Equal values may be shown once.

B1: 154F10G8 mouse-human chimeric antibody (antibody, human IgG4, V domains shown)
VH: QVQLQQPGAELVKPGASVKLSCKASGYTFTSYWITWVKQRPGQGLEWIGDIYPGSGSTFYNEKFKSEATLTVDTSSSTAYMQLSSLTSEDSAVFYCSTETTLGYWGQGTTLTVSS
VL: DVLMTQTPLSLPVSLGDQASISCRSSQSIVHNNGNTYLEWYLQKPGQSPKLLIYKVSNRFSGVPDRFSGSGSGTDFTLKISRVEAEDLGVYYCFQGSHVPFTFGSGTKLEIK
B2: 147D7H2 mouse-human chimeric antibody (antibody, human IgG4, V domains shown)
VH: EVQLQQSGAELVKPGASVKLSCTASGFNIKDYFIHWVKQRTEQGLEWIGRIDTEDGETKYAPKFQGKATITIDTSSNTAYLYFSSLTSEDTAMYYCARYGNYVAMDYWGQGTSVTVSS
VL: QIVLTQSPALMSASPGEKVTMTCSASSSVSYMFWYQQKPSSSPKPWIYLTSKLASGVPARFSGSGSGTSYSLTISSVEAEDAATYYCQQWNSNPYTFGGGTKLEIK

Columns and labels:
[1] = target: recombinant human IL-5 protein (human) (UniProt P05113); test: cell-based or functional assay
[2] = target: recombinant human IL-5 protein (human) (UniProt P05113); test: ELISA, biotin-human IL-5 on streptavidin plate, Ab 0.0002 nM
[3] = target: recombinant human IL-5 protein (human) (UniProt P05113); test: ELISA, biotin-human IL-5 on streptavidin plate, Ab 0.0009 nM
[4] = target: recombinant human IL-5 protein (human) (UniProt P05113); test: ELISA, biotin-human IL-5 on streptavidin plate, Ab 0.0043 nM
[5] = target: recombinant human IL-5 protein (human) (UniProt P05113); test: ELISA, biotin-human IL-5 on streptavidin plate, Ab 0.0213 nM
[6] = target: recombinant human IL-5 protein (human) (UniProt P05113); test: ELISA, biotin-human IL-5 on streptavidin plate, Ab 0.1067 nM
[7] = target: recombinant human IL-5 protein (human) (UniProt P05113); test: ELISA, biotin-human IL-5 on streptavidin plate, Ab 0.5333 nM
[8] = target: recombinant human IL-5 protein (human) (UniProt P05113); test: ELISA, biotin-human IL-5 on streptavidin plate, Ab 2.6667 nM
[9] = target: recombinant human IL-5 protein (human) (UniProt P05113); test: ELISA, biotin-human IL-5 on streptavidin plate, Ab 13.3333 nM
[10] = target: recombinant human IL-5 protein (human) (UniProt P05113); test: FACS blocking: biotin-IL-5 bound to CHOK1 IL-5Ra/CSF2RB cells, Ab 0.0004 nM
[11] = target: recombinant human IL-5 protein (human) (UniProt P05113); test: FACS blocking: biotin-IL-5 bound to CHOK1 IL-5Ra/CSF2RB cells, Ab 0.0021 nM
[12] = target: recombinant human IL-5 protein (human) (UniProt P05113); test: FACS blocking: biotin-IL-5 bound to CHOK1 IL-5Ra/CSF2RB cells, Ab 0.0107 nM
[13] = target: recombinant human IL-5 protein (human) (UniProt P05113); test: FACS blocking: biotin-IL-5 bound to CHOK1 IL-5Ra/CSF2RB cells, Ab 0.0533 nM
[14] = target: recombinant human IL-5 protein (human) (UniProt P05113); test: FACS blocking: biotin-IL-5 bound to CHOK1 IL-5Ra/CSF2RB cells, Ab 0.2667 nM
[15] = target: recombinant human IL-5 protein (human) (UniProt P05113); test: FACS blocking: biotin-IL-5 bound to CHOK1 IL-5Ra/CSF2RB cells, Ab 1.3333 nM
[16] = target: recombinant human IL-5 protein (human) (UniProt P05113); test: FACS blocking: biotin-IL-5 bound to CHOK1 IL-5Ra/CSF2RB cells, Ab 6.6667 nM
[17] = target: recombinant human IL-5 protein (human) (UniProt P05113); test: FACS blocking: biotin-IL-5 bound to CHOK1 IL-5Ra/CSF2RB cells, Ab 33.3333 nM
[18] = target: recombinant human IL-5 protein (human) (UniProt P05113); test: SPR, human IL-5 immobilized on CM5 chip, chimeric antibody as analyte, 1:1 global fit

RLU, CTLL-2 proliferation with IL-5, Ab 0.000170667 nM [1]	RLU, CTLL-2 proliferation with IL-5, Ab 0.000853333 nM [1]	RLU, CTLL-2 proliferation with IL-5, Ab 0.004266667 nM [1]	RLU, CTLL-2 proliferation with IL-5, Ab 0.02133333 nM [1]	RLU, CTLL-2 proliferation with IL-5, Ab 0.1066667 nM [1]	RLU, CTLL-2 proliferation with IL-5, Ab 0.5333334 nM [1]	RLU, CTLL-2 proliferation with IL-5, Ab 2.666667 nM [1]	RLU, CTLL-2 proliferation with IL-5, Ab 13.33333 nM [1]	RLU, CTLL-2 proliferation with IL-5, Ab 66.66666 nM [1]	RLU, CTLL-2 proliferation with IL-5, Ab 3.41333E-05 nM [1]	RLU, TF-1 proliferation with IL-5, Ab 0.00001 nM [1]	RLU, TF-1 proliferation with IL-5, Ab 0.00003 nM [1]	RLU, TF-1 proliferation with IL-5, Ab 0.00017 nM [1]	RLU, TF-1 proliferation with IL-5, Ab 0.00085 nM [1]	RLU, TF-1 proliferation with IL-5, Ab 0.00427 nM [1]	RLU, TF-1 proliferation with IL-5, Ab 0.02133 nM [1]	RLU, TF-1 proliferation with IL-5, Ab 0.10667 nM [1]	RLU, TF-1 proliferation with IL-5, Ab 0.53333 nM [1]	RLU, TF-1 proliferation with IL-5, Ab 2.66667 nM [1]	RLU, TF-1 proliferation with IL-5, Ab 13.33333 nM [1]	further results	Binder
59900 RLU and 54900 RLU	59800 RLU and 56700 RLU	64400 RLU and 61300 RLU	62100 RLU and 59300 RLU	54800 RLU and 52000 RLU	44900 RLU and 38200 RLU	28000 RLU and 25400 RLU	16200 RLU and 17000 RLU	12200 RLU and 12400 RLU	60700 RLU and 50200 RLU	110000 RLU and 113000 RLU	111000 RLU and 109000 RLU	111000 RLU	109000 RLU and 108000 RLU	109000 RLU and 114000 RLU	99100 RLU and 101000 RLU	81400 RLU and 82800 RLU	60400 RLU and 56800 RLU	45200 RLU and 42600 RLU	38500 RLU and 40000 RLU	OD450 nm [2]: 0.083 OD450 nm and 0.098 OD450 nm; OD450 nm [3]: 0.081 OD450 nm and 0.087 OD450 nm; OD450 nm [4]: 0.108 OD450 nm and 0.106 OD450 nm; OD450 nm [5]: 0.224 OD450 nm and 0.221 OD450 nm; OD450 nm [6]: 0.716 OD450 nm and 0.77 OD450 nm; OD450 nm [7]: 1.93 OD450 nm and 2 OD450 nm; OD450 nm [8]: 2.96 OD450 nm and 3.01 OD450 nm; OD450 nm [9]: 3.7 OD450 nm and 3.71 OD450 nm; Fluorescence intensity [10]: 91 MFI; Fluorescence intensity [11]: 88 MFI; Fluorescence intensity [12]: 88 MFI; Fluorescence intensity [13]: 87 MFI; Fluorescence intensity [14]: 67 MFI; Fluorescence intensity [15]: 46 MFI; Fluorescence intensity [16]: 39 MFI; Fluorescence intensity [17]: 35 MFI; Kd [18]: 0.188 nM; koff [18]: 5.24e-05 s⁻¹; kon [18]: 279000 M⁻¹ s⁻¹	B1
50700 RLU and 51700 RLU	50800 RLU and 50700 RLU	41400 RLU and 48200 RLU	33800 RLU and 36400 RLU	12700 RLU and 13200 RLU	9570 RLU and 10400 RLU	8620 RLU and 8160 RLU	7310 RLU and 6690 RLU	5230 RLU and 5240 RLU	56100 RLU and 52200 RLU	99500 RLU and 101000 RLU	100000 RLU and 95000 RLU	96400 RLU and 88800 RLU	89200 RLU and 82900 RLU	56700 RLU and 54800 RLU	45300 RLU and 43900 RLU	39000 RLU and 38700 RLU	36400 RLU and 40100 RLU	34800 RLU and 41200 RLU	35700 RLU and 39000 RLU	OD450 nm [2]: 0.103 OD450 nm and 0.101 OD450 nm; OD450 nm [3]: 0.102 OD450 nm and 0.104 OD450 nm; OD450 nm [4]: 0.172 OD450 nm and 0.156 OD450 nm; OD450 nm [5]: 0.406 OD450 nm and 0.385 OD450 nm; OD450 nm [6]: 1.25 OD450 nm and 1.3 OD450 nm; OD450 nm [7]: 2.74 OD450 nm and 2.91 OD450 nm; OD450 nm [8]: 3.22 OD450 nm and 3.35 OD450 nm; OD450 nm [9]: 3.44 OD450 nm and 3.72 OD450 nm; Fluorescence intensity [10]: 94 MFI; Fluorescence intensity [11]: 88 MFI; Fluorescence intensity [12]: 86 MFI; Fluorescence intensity [13]: 94 MFI; Fluorescence intensity [14]: 76 MFI; Fluorescence intensity [15]: 52 MFI; Fluorescence intensity [16]: 36 MFI; Fluorescence intensity [17]: 31 MFI; Kd [18]: < 0.0637 nM; koff [18]: < 1e-05 s⁻¹; kon [18]: 157000 M⁻¹ s⁻¹	B2
